# Assay results published in PMC6948192, “Structural Organization and Dynamics of Homodimeric Cytohesin Family Arf GTPase Exchange Factors in Solution and on Membranes” (Structure(London, England:1993), 2019).
# B1: Full-length ARNO carrying a 3G sequence in the membrane-binding site (ARNOFL) (natural protein, human, UniProt Q99418 1-400, looked up)
# chain: MEDGVYEPPDLTPEERMELENIRRRKQELLVEIQRLREELSEAMSEVEGLEANEGSKTLQRNRKMAMGRKKFNMDPKKGIQFLVENELLQNTPEEIARFLYKGEGLNKTAIGDYLGEREELNLAVLHAFVDLHEFTDLNLVQALRQFLWSFRLPGEAQKIDRMMEAFAQRYCLCNPGVFQSTDTCYVLSFAVIMLNTSLHNPNVRDKPGLERFVAMNRGINEGGDLPEELLRNLYDSIRNEPFKIPEDDGNDLTHTFFNPDREGWLLKLGGGRVKTWKRRWFILTDNCLYYFEYTTDKEPRGIIPLENLSIREVDDPRKPNCFELYIPNNKGQLIKACKTEADGRVVEGNHMVYRISAPTQEEKDEWIKSIQAAVSVDPFYEMLAARKKRISVKKKQEQP
# notes: Cloned in pET-8c (Antonny et al., 1997); also called Cytohesin-2; source: E. coli, purified (Ni-NTA HisTrap FF, Superdex 200)
# B2: Grp1_(14-399), diglycine variant, autoinhibited, in complex with the head group of PIP3 (IP4) (domain or fragment, mouse, UniProt O08967 14-399, looked up)
# chain: EDLSLEEREELLDIRRRKKELIDDIERLKYEIAEVMTEIDNLTSVEESKTTQRNKQIAMGRKKFNMDPKKGIQFLIENDLLQSSPEDVAQFLYKGEGLNKTVIGDYLGERDDFNIKVLQAFVELHEFADLNLVQALRQFLWSFRLPGEAQKIDRMMEAFASRYCLCNPGVFQSTDTCYVLSFAIIMLNTSLHNHNVRDKPTAERFITMNRGINEGGDLPEELLRNLYESIKNEPFKIPEDDGNDLTHTFFNPDREGWLLKLGGRVKTWKRRWFILTDNCLYYFEYTTDKEPRGIIPLENLSIREVEDPRKPNCFELYNPSHKGQVIKACKTEADGRVVEGNHVVYRISAPSPEEKEEWMKSIKASISRDPFYDMLATRKRRIANKK
# notes: Incubated with a 1.2 molar excess of inositol 1,3,4,5-tetrakisphosphate (IP4) before SEC-SAXS and NS-EM; source: E. coli BL21(DE3), purified (Ni-NTA, HiTrap Q, Superdex-200)
# B3: Grp1_(14-390), constitutively active construct lacking the polybasic motif (domain or fragment, mouse, UniProt O08967 14-390, looked up)
# chain: EDLSLEEREELLDIRRRKKELIDDIERLKYEIAEVMTEIDNLTSVEESKTTQRNKQIAMGRKKFNMDPKKGIQFLIENDLLQSSPEDVAQFLYKGEGLNKTVIGDYLGERDDFNIKVLQAFVELHEFADLNLVQALRQFLWSFRLPGEAQKIDRMMEAFASRYCLCNPGVFQSTDTCYVLSFAIIMLNTSLHNHNVRDKPTAERFITMNRGINEGGDLPEELLRNLYESIKNEPFKIPEDDGNDLTHTFFNPDREGWLLKLGGRVKTWKRRWFILTDNCLYYFEYTTDKEPRGIIPLENLSIREVEDPRKPNCFELYNPSHKGQVIKACKTEADGRVVEGNHVVYRISAPSPEEKEEWMKSIKASISRDPFYDMLAT
# notes: Grp1 (cytohesin-3), mouse, diglycine splice variant, residues 14-390 (lacks the polybasic region); also called fully active Grp1 dimer; source: E. coli BL21(DE3), purified (Ni-NTA, HiTrap Q, Superdex-200)
# Tests used:
# [1] = target: the molecule itself; assay: SEC-SAXS; ARNOFL, no phosphoinositide head group; BM29 beamline (ESRF), Bio Sec300 HPLC column, 600 μg in 60 μL injected
# [2] = target: the molecule itself; assay: SEC-SAXS; BioCAT 18-ID (APS); samples with 1.2 molar excess of IP4, concentrated to 10-20 mg/ml, Superdex-200 Increase; 20 mM Tris pH 8.0, 150 mM NaCl, 2 mM MgCl2, 0.1% 2-mercaptoethanol, 5% glycerol, 1 μM IP4; peak concentration ∼80 μM (Grp1 14-399), ∼1 mg/mL (Grp1 14-390)
Protein,stoichiometry N [1],stoichiometry N [2]
B1,2,
B2,,2
B3,,2
